# Reference: article PMC6090299, “Quantitative Analysis of Interaction Between CADM1 and Its Binding Cell-Surface Proteins Using Surface Plasmon Resonance Imaging” (Frontiers in Cell and Developmental Biology, 2018)
# T1: CADM1-Fc (human (by the printed RefSeq entry), UniProt Q9BY67-1 45-374)
# T1 construct: signal peptide in the construct; CADM1 extracellular domain, NP_055148, 1-374 a.a; Human IgG2-Fc fragment from pFUSE-hIgG2-Fc1; Glycosylated; also called cell adhesion molecule 1 extracellular domain fused with Fc; source: FreeStyle 293-F cells, transiently transfected, purified from the supernatant (Protein G Sepharose); not shown: Fc (human IgG2), C-terminal, kept
# T1 sequence (looked up): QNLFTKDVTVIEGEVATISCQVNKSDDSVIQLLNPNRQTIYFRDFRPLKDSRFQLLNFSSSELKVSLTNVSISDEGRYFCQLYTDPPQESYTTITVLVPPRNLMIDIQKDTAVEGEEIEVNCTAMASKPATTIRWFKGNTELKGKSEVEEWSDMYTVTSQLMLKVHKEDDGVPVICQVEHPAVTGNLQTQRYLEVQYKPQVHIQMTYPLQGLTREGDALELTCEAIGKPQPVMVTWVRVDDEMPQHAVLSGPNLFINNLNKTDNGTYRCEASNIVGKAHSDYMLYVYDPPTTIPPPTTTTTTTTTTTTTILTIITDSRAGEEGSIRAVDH
# B1: CRTAM-Fc (Fc fusion, human (by the printed RefSeq entry), UniProt O95727-1 18-287, looked up)
# chain: SLTNHTETITVEEGQTLTLKCVTSLRKNSSLQWLTPSGFTIFLNEYPALKNSKYQLLHHSANQLSITVPNVTLQDEGVYKCLHYSDSVSTKEVKVIVLATPFKPILEASVIRKQNGEEHVVLMCSTMRSKPPPQITWLLGNSMEVSGGTLHEFETDGKKCNTTSTLIIHTYGKNSTVDCIIRHRGLQGRKLVAPFRFEDLVTDEETASDALERNSLSSQDPQQPTSTVSVTEDSSTSEIDKEEKEQTTQDPDLTTEANPQYLGLARKKSG
# notes: signal peptide in the construct; CRTAM extracellular domain, NP_062550, 1-287 a.a; Human IgG2-Fc fragment from pFUSE-hIgG2-Fc1; also called class-I MHC-restricted T-cell-associated molecule; source: FreeStyle 293-F cells, transiently transfected, purified from the supernatant (Protein G Sepharose); not shown: Fc (human IgG2), C-terminal, kept
# Target: T1, CADM1-Fc
# Experiment: SPR; SPR imaging (OpenPlex); the 10 IgSF-Fc proteins (7-24 μM) spotted in hexaplicate and immobilised by amine coupling; 2.4 μM CADM1-Fc injected for 4 min; 25°C; PBS with 0.2% BSA and 0.02% Tween20, 50 μL/min; signal of normal human IgG subtracted
# Details: both partners purified
binder,measurement,value
B1,Kd,3.3 nM
same,koff,0.00011 s⁻¹
same,kon,31000 M⁻¹ s⁻¹
